Reference: patent US20080194485

Target: prekallikrein (PK), P03952
Sequence (P03952 20-638): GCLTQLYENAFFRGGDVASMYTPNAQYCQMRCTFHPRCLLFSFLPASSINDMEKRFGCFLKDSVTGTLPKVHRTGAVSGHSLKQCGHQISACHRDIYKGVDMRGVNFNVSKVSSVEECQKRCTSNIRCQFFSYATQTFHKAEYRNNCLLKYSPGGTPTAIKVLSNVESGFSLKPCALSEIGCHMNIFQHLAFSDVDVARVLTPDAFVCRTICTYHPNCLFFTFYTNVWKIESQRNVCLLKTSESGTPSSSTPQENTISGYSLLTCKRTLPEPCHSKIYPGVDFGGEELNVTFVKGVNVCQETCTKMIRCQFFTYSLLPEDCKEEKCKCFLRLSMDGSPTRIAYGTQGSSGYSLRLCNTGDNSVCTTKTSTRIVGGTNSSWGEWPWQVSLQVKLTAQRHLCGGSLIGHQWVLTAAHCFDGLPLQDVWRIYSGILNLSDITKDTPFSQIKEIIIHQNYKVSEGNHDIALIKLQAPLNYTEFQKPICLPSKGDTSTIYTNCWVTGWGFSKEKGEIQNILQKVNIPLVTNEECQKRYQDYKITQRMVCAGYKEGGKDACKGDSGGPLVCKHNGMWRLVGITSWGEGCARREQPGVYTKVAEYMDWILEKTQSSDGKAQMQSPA

B1: recombinant PRCP51 (recombinant human prolylcarboxypeptidase, predicted molecular mass 51 kDa) (protein)
chain: KNYSVLYFQQKVDHFGFNTVKTFNQRYLVADKYWKKNGGSILFYTGNEGDIIWFCNNTGFMWDVAEELKAMLVFAEHRYYGESLPFGDNSFKDSRHLNFLTSEQALADFAELIKHLKRTIPGAENQPVIAIGGSYGGMLAAWFRMKYPHMVVGALAASAPIWQFEDLVPCGVFMKIVTTDFRKSGPHCSESIHRSWDAINRLSNTGSGLQWLTGALHLCSPLTSQDIQHLKDWISETWVNLAMVDYPYASNFLQPLPAWPIKVVCQYLKNPNVSDSLLLQNIFQALNVYYNYSGQVKCLNISETATSSLGTLGWSYQACTEVVMPFCTNGVDDMFEPHSWNLKELSDDCFQQWGVRPRPSWITTMYGGKNISSHTNIVFSNGELDPWSGGGVTKDITDTLVAVTISEGAHHLDLRTKNALDPMSVLLARSLEVRHMKNWIRDFYDSAGKQH
Km of prekallikrein activation: Recombinant PRCP51 activates PK with a Km and Vmax of 9 nM and 0.2 min^-1, respectively | Vmax of prekallikrein activation: Recombinant PRCP51 activates PK with a Km and Vmax of 9 nM and 0.2 min^-1, respectively
